The test system of experiment [1] is T1, PEPc PCC 7002 (Strep-column purified, mixed oligomer population).
T1 construct: gene ppc; N-terminal Strep-tag kept, E. coli BL21, pETBB; dimer/tetramer mixture purified with Mg2+
Description: malate dehydrogenase-coupled NADH assay, […] nm, Hanes-Woolf plot. It is filed as biochemical, Picosynechococcus sp. PCC 7002. The following applies: pH 7.5, 35 °C, mixed dimer/tetramer.

Experiment [2] relates to T2, T_PEPc PCC 7002 (tetramer fraction of PEPc from Synechococcus PCC 7002).
T2 construct: gene ppc; N-terminal Strep-tag kept, E. coli BL21, pETBB
Described as above. It is filed as biochemical, Picosynechococcus sp. PCC 7002. The following applies: pH 8.0, 35 °C, SEC tetramer fraction.

In experiment [3] the target is Phosphoenolpyruvate carboxylase (PEPc) from Synechococcus PCC 7002 (Synechococcus PCC 7002). Description: SEC; HiLoad 16/60 Superdex 200, 4 °C, TBS pH 8.0 with 5 mM PEP; 500 µg protein at 0.87 mg/ml; dimer and tetramer peaks.
The target is the same in experiment [4]. Description: SEC; HiLoad 16/60 Superdex 200, 4 °C, TBS pH 8.0 with 5 mM NaHCO3; 500 µg protein at 0.87 mg/ml; dimer and tetramer peaks.
For experiment [5] the target is unchanged. Description: SEC; HiLoad 16/60 Superdex 200, 4 °C, TBS pH 8.0 with 10 mM MgCl2 (Mg_10); 500 µg protein at 0.87 mg/ml; dimer and tetramer peaks.
Experiment [6] shares this target. Description: SEC; HiLoad 16/60 Superdex 200, 4 °C, TBS pH 8.0 with 25 mM MgCl2 (Mg_25); 500 µg protein at 0.87 mg/ml; dimer and tetramer peaks.
The target is the same in experiment [7]. Description: SEC; HiLoad 16/60 Superdex 200, 4 °C, TBS pH 8.0 with 10 mM MgCl2 and 5 mM PEP; 500 µg protein at 0.87 mg/ml; dimer and tetramer peaks.
For experiment [8] the target is unchanged. Description: SEC; HiLoad 16/60 Superdex 200, 4 °C, TBS pH 8.0 with 5 mM NaHCO3 and 5 mM PEP; 500 µg protein at 0.87 mg/ml; dimer and tetramer peaks.
The target is the same in experiment [9]. Description: SEC; HiLoad 16/60 Superdex 200, 4 °C, TBS pH 8.0 with 10 mM MgCl2 and 5 mM NaHCO3; 500 µg protein at 0.87 mg/ml; dimer and tetramer peaks.
Experiment [10] has the same target. Description: SEC; HiLoad 16/60 Superdex 200, 4 °C, TBS pH 8.0 with 10 mM MgCl2, 5 mM NaHCO3 and 5 mM PEP (in vitro reaction); 500 µg protein at 0.87 mg/ml; dimer and tetramer peaks.
The target is the same in experiment [11]. Description: SEC-SAXS; Shodex KW-403 4.6 ml column, room temperature, 50 µl protein at 6.5 or 0.87 mg/ml in TBS pH 8.0 or TBS with 25 mM MgCl2; beamline B21, Diamond Light Source; three peaks analysed separately.
For experiment [12] the target is unchanged. Description: SEC; HiLoad 16/60 Superdex 200, 4 °C, TBS (100 mM Tris-HCl, 150 mM NaCl) pH 8.0, no addition; 500 µg protein at 0.87 mg/ml, incubated 30 min at room temperature in the same buffer; dimer and tetramer peaks.
Setting [13] is: 10 mM MgCl2, co-substrate NaHCO3 (5 mM in the standard assay).
Where [14] appears, read: 10 mM MgCl2, co-substrate PEP (5 mM in the standard assay).

These results are taken from publication PMC7046716, “Oligomerization and characteristics of phosphoenolpyruvate carboxylase in Synechococcus PCC 7002” (Scientific Reports, 2020).

Values joined by “and” are separate entries in the source; they are usually repeats but may differ in a detail not shown here. Identical values can stand only once.

In the case of `C=C(OP(=O)(O)O)C(=O)O` [PEP], the Km in experiment [1] (setting [13]) stood at 1060 µM; in experiment [2] (setting [13]) it was 770 µM.
As to `O=C(O)O` [HCO3^−], the Michaelis-Menten constant (Km) came to 970 µM in [1] (setting [14]) and 240 µM in experiment [2] (setting [14]).
“Phosphoenolpyruvate carboxylase (PEPc) from Synechococcus PCC 7002 (enzyme)”: the ratio tetramer:dimer (peak values) (tetramer:dimer) worked out at 1.1 in experiment [3]; 0 in experiment [4]; 0 in experiment [5]; 1.4 in [6]; 1.3 in experiment [7]; 0.8 in experiment [8]. For the same compound, the ratio tetramer:dimer (peak values) (tetramer:dimer) in [9] amounted to 0.8; in [12], 0. Besides, the stoichiometry N was 4 and 2 in [3]; 2 in experiment [4]; 2 in [5]; 4 and 2 in experiment [6]; 4 and 2 in experiment [7]; 4 and 2 in experiment [8]. The stoichiometry N was 4 and 2 in [9]; 4 and 2 in [10]; 4 and 2 in experiment [11]; 2 in experiment [12].
